Reference: US20140287471A1, “VARIANT CBH I POLYPEPTIDES WITH REDUCED PRODUCT INHIBITION” (BP CORPORATION NORTN AMERICA INC., priority 2011, published 2014)
Where a chain is given by its changes, count along the chain named. Numbers in names are those of the source. Where two headings read alike, the source gives them in different places.

B1: R268A/R411K: T. reesei CBH I with R268A and R411K substitutions (protein, UniProt P62694 18-513, looked up, variant R268A R411K)
Exoglucanase 1: QSACTLQSETHPPLTWQKCSSGGTCTQQTGSVVIDANWRWTHATNSSTNCYDGNTWSSTLCPDNETCAKNCCLDGAAYASTYGVTTSGNSLSIGFVTQSAQKNVGARLYLMASDTTYQEFTLLGNEFSFDVDVSQLPCGLNGALYFVSMDADGGVSKYPTNTAGAKYGTGYCDSQCPRDLKFINGQANVEGWEPSSNNANTGIGGHGSCCSEMDIWEANSISEALTPHPCTTVGQEICEGDGCGGTYSDNAYGGTCDPDGCDWNPYRLGNTSFYGPGSSFTLDTTKKLTVVTQFETSGAINRYYVQNGVTFQQPNAELGSYSGNELNDDYCTAEEAEFGGSSFSDKGGLTQFKKATSGGMVLVMSLWDDYYANMLWLDSTYPTNETSSTPGAVKGSCSTSSGVPAQVESQSPNAKVTFSNIKFGPIGSTGNPSGGNPPGGNRGTTTTRRPATTTGSSPGPTQSHYGQCGGIGYSGPTVCASGTTCQVLNPYYSQCL
B2: R411K: T. reesei CBH I with an R411K substitution (protein, UniProt P62694 18-513, looked up, variant R411K)
Exoglucanase 1: B1 Exoglucanase 1 with A251R
B3: 411A: CBH I variant with site 411 mutated to alanine (protein, listed as Trichoderma reesei)
chain: QSACTLQSETHPPLTWQKCSSGGTCTQQTGSVVIDANWRWTHATNSSTNCYDGNTWSSTLCPDNETCAKNCCLDGAAYASTYGVTTSGNSLSIGFVTQSAQKNVGARLYLMASDTTYQEFTLLGNEFSFDVDVSQLPCGLNGALYFVSMDADGGVSKYPTNTAGAKYGTGYCDSQCPRDLKFINGQANVEGWEPSSNNANTGIGGHGSCCSEMDIWEANSISEALTPHPCTTVGQEICEGDGCGGTYSDNRYGGTCDPDGCDWNPYRLGNTSFYGPGSSFTLDTTKKLTVVTQFETSGAINRYYVQNGVTFQQPNAELGSYSGNELNDDYCTAEEAEFGGSSFSDKGGLTQFKKATSGGMVLVMSLWDDYYANMLWLDSTYPTNETSSTPGAVAGSCSTSSGVPAQVESQSPNAKVTFSNIKFGPIGSTGNPSGGNPPGGNPPGTTTTRRPATTTGSSPGPTQSHYGQCGGIGYSGPTVCASGTTCQVLNPYYSQCL
B4: R268A: T. reesei CBH I with an R268A substitution (protein, listed as Trichoderma reesei)
chain: B3 chain with R251A, A394R
B5: wild type T. reesei CBH I: wild type T. reesei CBH I (SEQ ID NO:2) (protein, listed as Trichoderma reesei)
chain: MYRKLAVISAFLATARAQSACTLQSETHPPLTWQKCSSGGTCTQQTGSVVIDANWRWTHATNSSTNCYDGNTWSSTLCPDNETCAKNCCLDGAAYASTYGVTTSGNSLSIGFVTQSAQKNVGARLYLMASDTTYQEFTLLGNEFSFDVDVSQLPCGLNGALYFVSMDADGGVSKYPTNTAGAKYGTGYCDSQCPRDLKFINGQANVEGWEPSSNNANTGIGGHGSCCSEMDIWEANSISEALTPHPCTTVGQEICEGDGCGGTYSDNRYGGTCDPDGCDWNPYRLGNTSFYGPGSSFTLDTTKKLTVVTQFETSGAINRYYVQNGVTFQQPNAELGSYSGNELNDDYCTAEEAEFGGSSFSDKGGLTQFKKATSGGMVLVMSLWDDYYANMLWLDSTYPTNETSSTPGAVRGSCSTSSGVPAQVESQSPNAKVTFSNIKFGPIGSTGNPSGGNPPGGNPPGTTTTRRPATTTGSSPGPTQSHYGQCGGIGYSGPTVCASGTTCQVLNPYYSQCL
B6: R268K: T. reesei CBH I with an R268K substitution (protein, listed as Trichoderma reesei)
chain: B5 chain with R268K

Legend:
Assay type in all cases: biochemical
[1] = Saccharification assay (bagasse assay) with and without β-glucosidase (Example 1); conditions: T. reesei CBH I variants; activity without β-glucosidase (BG) relative to with BG
Protocol: This assay measures the activity of CBH I on bagasse, a lignocellulosic substrate. Reactions were run in 10 ml vials with 5% dilute acid pretreated bagasse (250 mg solids per 5 ml reaction). Each reaction contained 4 mg CBH I enzyme/g solids, 200 mM MES pH 6, kanamycin, and chloramphenicol. Reactions were incubated at 35° C. in hybridization incubators (Robbins Scientific), rotating at 20 RPM. Time points were taken by transferring a sample of homogenous slurry (150 μl) into a 96-well deep well plate and quenching the reaction with stop buffer (450 μl of 500 mM sodium carbonate, pH 10). Time point measurements were taken every 24 hours for 72 hours.
(§1) Tolerance to cellobiose (or inhibition caused by cellobiose) was tested in two ways in the CBH I assays. A direct-dose tolerance method can be applied to all of the CBH I assays (i.e., 4-MUL, PASC, and/or bagasse assays), and entails the exogenous addition of a known amount of cellobiose into assay mixtures. A different indirect method entails the addition of an excess amount of β-glucosidase (BG) to PASC and bagasse assays (typically, 1 mg β-glucosidase/g solids loaded). BG will enzymatically hydrolyze the cellobiose generated during these assays; therefore, CBH I activity in the presence of BG can be taken as a measure of activity in the absence of cellobiose. Furthermore, when activity in the presence and absence of BG are similar, this indicates tolerance to cellobiose.

[2] = 4-MUL assay with and without cellobiose (Example 1)
[3] = 4-MUL cellobiose tolerance/inhibition assay, dose-response IC50 (Example 2)
In short: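 IC50 reflects cellobiose concentration halving activity, fitted by four-parameter dose-response with zero activity fixed at knockout-strain background. Assays used 4-MUL (0.5 mM) with enzyme at 5 μg/mL or less, pH 6 MES, 25 mM gluconolactone blocking BG, cellobiose up to 100 mM; 4-MU fluorescence read.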

[4] = PASC assay, cellobiose dose-response (Example 1); conditions: FIG. 3
Protocol: This assay measures the activity of CBH I using PASC as the substrate. During the assay, the concentration of PASC is monitored by a fluorescent signal derived from calcofluor binding to PASC (ex/em 365/440 nm). The assay is initiated by mixing enzyme (15 μl) and reaction buffer (85 μl of 0.2% PASC, 200 mM MES, pH 6), and then incubating at 35° C. while shaking at 225 RPM. After 2 hours, one reaction volume of calcofluor stop solution (100 μg/ml in 500 mM glycine pH 10) is added and fluorescence read-outs obtained (ex/em 365/440 nm).
as §1

[5] = Secondary screening, CBH I levels normalized to 5 μg/mL, cellobiose range 0.00085-100 mM, read-out: IC50
[6] = secondary screening, CBH I levels normalized to 5 μg/mL, cellobiose range 0.0001-100 mM, read-out: Average IC50

Row | Molecule | Tolerance to cellobiose accumulation % Activity in Bagasse Assay (+/−BG) [1] [%] | Tolerance to 250 mg/L cellobiose % Activity in 4-MUL Assay (+/−Cellobiose) ([2]; T. reesei CBH I variants, activity with 250 mg/L cellobiose relative to without cellobiose) [%] | IC50 [3, 5] [µM] | IC50 [3, 6] [µM] | IC50 ([3]; averaged IC50 values from Tables 8-11, read-out: measured IC50 of cellobiose (merged values)) [µM] | IC50 of cellobiose (PASC assay) [4] [µg/mL] | cellobiose concentration at which inhibition starts (PASC assay) [4] | % activity remaining in 4-MUL assay in the presence of cellobiose ([2]; T. reesei CBH I and R268/R411 variants, 250 mg/L cellobiose) [%]
1 | B1 | 94 | 97 |  |  |  |  |  | 
2 | B2 | 89 |  | 3060 | 2080 |  |  |  | 
3 | B3 | 94 |  | 1060 | 918 | 1170 |  |  | 
4 | B4 | 86 |  | 574 | 423 |  |  |  | 
5 | B5 |  |  |  |  |  | 3000 | around 1 g/L | 23
6 | B6 | 92 |  | 134 | 93 |  |  |  | 
